Laboratory results from PMC4838387, “PolDIP2 interacts with human PrimPol and enhances its DNA polymerase activities”.

Target: T1, PrimPol24-354 (AEP catalytic domain);PolDIP2 (untagged) (human;human?, UniProt Q96LW4;Q9Y2S7 24-354;1-368, |)
T1 sequence 1: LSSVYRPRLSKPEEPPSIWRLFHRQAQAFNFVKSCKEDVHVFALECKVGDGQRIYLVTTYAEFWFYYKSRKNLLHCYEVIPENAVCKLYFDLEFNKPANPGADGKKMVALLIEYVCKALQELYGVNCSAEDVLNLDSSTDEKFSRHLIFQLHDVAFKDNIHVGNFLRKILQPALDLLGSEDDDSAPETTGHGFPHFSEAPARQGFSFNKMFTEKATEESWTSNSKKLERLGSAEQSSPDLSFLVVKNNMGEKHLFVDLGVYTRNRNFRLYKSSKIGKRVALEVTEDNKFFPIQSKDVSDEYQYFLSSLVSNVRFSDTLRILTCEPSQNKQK
T1 sequence 2: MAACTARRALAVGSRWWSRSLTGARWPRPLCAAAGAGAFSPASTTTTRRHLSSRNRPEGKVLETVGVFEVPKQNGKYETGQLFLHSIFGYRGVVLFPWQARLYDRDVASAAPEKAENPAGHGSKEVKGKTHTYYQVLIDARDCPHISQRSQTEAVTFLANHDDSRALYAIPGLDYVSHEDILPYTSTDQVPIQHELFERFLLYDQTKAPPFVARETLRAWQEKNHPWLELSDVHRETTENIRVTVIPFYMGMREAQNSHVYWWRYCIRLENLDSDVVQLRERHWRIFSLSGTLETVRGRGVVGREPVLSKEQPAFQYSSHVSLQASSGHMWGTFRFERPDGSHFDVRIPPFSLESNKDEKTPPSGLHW
Assay: EMSA; PolDIP2 50-250 nM with PrimPol; more DNA bound than by PrimPol alone, super-shifted complex; 10 mM Mg2+; EMSA: 10 mM Bis-Tris-propane-HCl pH 7.0, 10 mM MgCl2, 100 uM DTT, 20 nM DNA; 5% native PAGE, 0.5x TBE; binding temperature not stated
Conditions: protein: recombinant;recombinant; tags: ;none (GST cleaved with PreScission protease); copies: 1;1; label: 5'-HEX on primer; 3'-biotin on template; 20 bp duplex; template 5' overhang 77 nt

B1: 20/97-mer primer/template (HP-20 / ND-97) (mixed)
DNA 1: TGTCGTCTGTTCGGTCGTTC
DNA 2: ACCGCGAACTTGAATTCTAGTTCAGTCTAAATGCTCTCAAGCACTGAGCAATTCACAACATATGGCTTTCGATTACCGAACGACCGAACAGACGACA
Q: Does B1 bind?
A: binds
